B1: wildtype TBK1 (TANK-binding kinase 1), mCitrine-Protein A fusion [not stated] / TRAF family member-associated NF-kB activator (TANK), NanoLuc-tagged [not stated] (parent complex)
chain 1: MQSTSNHLWLLSDILGQGATANVFRGRHKKTGDLFAIKVFNNISFLRPVDVQMREFEVLKKLNHKNIVKLFAIEEETTTRHKVLIMEFCPCGSLYTVLEEPSNAYGLPESEFLIVLRDVVGGMNHLRENGIVHRDIKPGNIMRVIGEDGQSVYKLTDFGAARELEDDEQFVSLYGTEEYLHPDMYERAVLRKDHQKKYGATVDLWSIGVTFYHAATGSLPFRPFEGPRRNKEVMYKIITGKPSGAISGVQKAENGPIDWSGDMPVSCSLSRGLQVLLTPVLANILEADQEKCWGFDQFFAETSDILHRMVIHVFSLQQMTAHKIYIHSYNTATIFHELVYKQTKIISSNQELIYEGRRLVLEPGRLAQHFPKTTEENPIFVVSREPLNTIGLIYEKISLPKVHPRYDLDGDASMAKAITGVVCYACRIASTLLLYQELMRKGIRWLIELIKDDYNETVHKKTEVVITLDFCIRNIEKTVKVYEKLMKINLEAAELGEISDIHTKLLRLSSSQGTIETSLQDIDSRLSPGGSLADAWAHQEGTHPKDRNVEKLQVLLNCMTEIYYQFKKDKAERRLAYNEEQIHKFDKQKLYYHATKAMTHFTDECVKKYEAFLNKSEEWIRKMLHLRKQLLSLTNQCFDIEEEVSKYQEYTNELQETLPQKMFTASSGIKHTMTPIYPSSNTLVEMTLGMKKLKEEMEGVVKELAENNHILERFGSLTMDGGLRNVDCL
chain 2: MDKNIGEQLNKAYEAFRQACMDRDSAVKELQQKTENYEQRIREQQEQLSLQQTIIDKLKSQLLLVNSTQDNNYGCVPLLEDSETRKNNLTLDQPQDKVISGIAREKLPKVRRQEVSSPRKETSARSLGSPLLHERGNIEKTFWDLKEEFHKICMLAKAQKDHLSKLNIPDTATETQCSVPIQCTDKTDKQEALFKPQAKDDINRGAPSITSVTPRGLCRDEEDTSFESLSKFNVKFPPMDNDSTFLHSTPERPGILSPATSEAVCQEKFNMEFRDNPGNFVKTEETLFEIQGIDPIASAIQNLKTTDKTKPSNLVNTCIRTTLDRAACLPPGDHNALYVNSFPLLDPSDAPFPSLDSPGKAIRGPQQPIWKPFPNQDSDSVVLSGTDSELHIPRVCEFCQAVFPPSITSRGDFLRHLNSHFNGET

The variants in the first test derive from B1. The test is described as follows: LuTHy-BRET; live HEK293 cells; parent: 1; read off a plot. In general terms: In BRET a luciferase serves as donor, and the signal depends on an acceptor being close.
On to chain 1 R47H, for which the ratio to parent was around 1.
With chain 1 E696K, the ratio to parent is around 0.99.

In another test the parent is B1. The test is described as follows: LuTHy-BRET donor saturation assay; live HEK293 cells; read at Acceptor:Donor = 4 (highest point of the curve); parent: 0.068; read off a plot.
For the variant chain 1 E696K, the response was around 0.062.

The values are drawn from article PMC10959724 (2024).
